This note sets out measurements from US10254283.

Data set [1] deals with Flag-eIF4B (S406A).
For data set [2], the target named is recombinant Histone H3.1 (New England BioLabs, M2503S).
For data set [3], the target named is Flag-eIF4B (wild type).
Sequence of Flag-eIF4B (wild type) (chain, as listed by the source): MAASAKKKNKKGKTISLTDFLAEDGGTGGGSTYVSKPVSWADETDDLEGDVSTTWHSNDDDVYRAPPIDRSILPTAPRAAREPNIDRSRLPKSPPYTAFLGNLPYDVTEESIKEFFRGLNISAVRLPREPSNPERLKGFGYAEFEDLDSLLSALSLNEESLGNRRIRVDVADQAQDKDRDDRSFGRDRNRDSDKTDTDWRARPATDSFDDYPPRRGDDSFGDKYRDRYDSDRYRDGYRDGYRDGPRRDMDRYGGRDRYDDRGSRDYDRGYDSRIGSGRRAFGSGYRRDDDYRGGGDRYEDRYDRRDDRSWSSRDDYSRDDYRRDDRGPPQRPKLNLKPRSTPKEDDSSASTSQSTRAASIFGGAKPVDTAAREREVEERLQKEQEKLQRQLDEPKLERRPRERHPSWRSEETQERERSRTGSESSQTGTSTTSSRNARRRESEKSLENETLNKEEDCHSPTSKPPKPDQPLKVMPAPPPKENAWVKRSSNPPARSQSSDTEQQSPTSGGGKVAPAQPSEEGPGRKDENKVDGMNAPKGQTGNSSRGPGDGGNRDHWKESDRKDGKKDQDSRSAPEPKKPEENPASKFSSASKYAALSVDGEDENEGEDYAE

Sequence of Flag-eIF4B (S406A) (chain, as listed by the source S406A): as the sequence (chain, as listed by the source) above, with S406A counted along it

B1: recombinant MELK (kinase domain) (protein)
chain: MKDYDELLKYYELHETIGTGGFAKVKLACHILTGEMVAIKIMDKNTLGSDLPRIKTEIEALKNLRHQHICQLYHVLETANKIFMVLEYCPGGELFDYIISQDRLSEEETRVVFRQIVSAVAYVHSQGYAHRDLKPENLLFDEYHKLKLIDFGLCAKPKGNKDYHLQTCCGSLAYAAPELIQGKSYLGSEADVWSMGILLYVLMCGFLPFDDDNVMALYKKIMRGKYDVPKWLSPSSILLLQQMLQVDPKKRISMKNLLNHPWIMQDYNYPVEWQSKNPFIHLDDDCVTELSVHHRNNRQTMEDLISLWQYDHLTATYLLLLAKKARGKPVRLRLSSFSCG
Consider B1, for which the “in vitro kinase assay, phosphorylation of eIF4B at S406 (immunoblot)” value in data set [1] is listed as “This phosphorylation was abolished when wild type (wt) eIF4B was replaced with a mutant eIF4B (S406A)”. Further, in data set [2], the “in vitro kinase assay, phosphorylation of Histone H3 at Thr3, Ser10 and Thr11 (immunoblot)” value is “Thr3, Ser10, and Thr11 of human Histone H3 were readily phosphorylated by the kinase domain of MELK”. For the same protein, in data set [3], the “in vitro kinase assay, phosphorylation of eIF4B at Ser406 (immunoblot)” value was “Ser406, but not Ser422, of human eIF4B was readily phosphorylated by full-length MELK or the kinase domain of MELK” and the “in vitro kinase assay, phosphorylation of eIF4B at Ser422 (immunoblot)” value was “MELK does not phosphorylates eIF4B at S422 in vitro”.
